The DeepSol protein solubility set

Test: soluble on expression in E. coli; label from the status in PepcDB or PDB records

Row | Sequence | soluble on expression in E. coli
1 | MRGSHHHHHHGSMKRAVITGLGIVSSIGNNQQEVLASLREGRSGITFSQELKDSGMRSHVWGNVKLDTTGLIDRKVVRFMSDASIYAFLSMEQAIADAGLSPEAYQNNPRVGLIAGSGGGSPRFQVFGADAMRGPRGLKAVGPYVVTKAMASGVSACLATPFKIHGVNYSISSACATSAHCIGNAVEQIQLGKQDIVFAGGGEELCWEMACEFDAMGALSTKYNDTPEKASRTYDAHRDGFVIAGGGGMVVVEELEHALARGAHIYAEIVGYGATSDGADMVAPSGEGAVRCMKMAMHGVDTPIDYLNSEGTSTPVGDVKELAAIREVFGDKSPAISATKAMTGHSLGAAGVQEAIYSLLMLEHGFIAPSINIEELDEQAAGLNIVTETTDRELTTVMSNSFGFGGTNATLVMRKLKD | soluble
2 | MNRQELITEALKARDMAYAPYSKFQVGAALLTKDGKVYRGCNIENAAYSMCNCAERTALFKAVSEGDTEFQMLAVAADTPGPVSPCGACRQVISELCTKDVIVVLTNLQGQIKEMTVEELLPGAFSSEDLHDERKL | soluble
3 | MFQPVTQKRLTNVSVVRMRKGGKRFEIACYPNMVMAYREGHVRDLDEVIQVEDVFENVSKGKLAANADLERCFGTRDRHAVLLQILLHGDLQVSDRERQYQSTRKLHEIASVVAAKTISRETKKPLPVGLIEKALREIHFAVQPNRPAKAQALEVIPLLRAQSGLDLERARLRLRIHVPSQRDAKAVKARLEPLQQGETDGTHSSSRSDSVRMKDGSAAVESESEEWLPGGALLWTVQADPGAFREIEEIVQRETNQQGIVEVASLRVLDDEDESILS | not soluble
4 | MSLRNKLQQAKRIVIKVGTSSLIYPNGNINLKAIDQLAFTLSDLSNQGKEIILVSSGAIGVGLNKLNLSVRPTTIPEQQAVAAVGQAELMNIYNQRFSTYSQQMAQVLLTRDVIEYPESRNNVTNTFEQLLKMNIIPIVNENDTVAIEELDHLTKFGDNDQLSAIVCQIVQADLLVMLSDIDGFFSDNPTVNKEATLFSEINEINEDLFQLAGGKGSRFGTGGMSSKLKAAERVLANQQAMILANGKQPKIIFEILEGKDIGTLFIKGGHESDEGHHHHHH | soluble
5 | MSLPEHTPSDRLALDAMLGKLATYLRMCGYDTAYALDRDAEADDDLLDIAEREDRLVITRDSDLATRAPESVLLSEREIEDQLRELADAGFRLSLAPEPDYCGVCNSPVEEVDPVEPTPEYAPSAGDERVWRCTDCGQHFWKGSHWASVEATLEDVEGHHHHHH | soluble
6 | MLKGEDIGIDLGTASVLIYVRGKGIVLKEPSVIAVVQGKREVKAVGAEAYRMLGRTPGNIVAVRPLKDGVIADYALTEKMLLLFLQKVLSPMSRLFKGRVRIMVGVPSGVTDVERRAVVQAVSTLAHKVYLIEEPLAAAIGAGINVAEPTGSMVVDIGGGSTDIAVISLGGIVRSESLRIAGNEMDQAIILHIRQKYNLLIGERTAEELKIRLGRAKLLPGEEKEVAEVRGRDLLTGLPRTAEIPAEDIVEALQEPLSKIFQGVRNVLESTPPELASDIYERGILLTGGGALLRNLDVALQKATGVPVVVTENPIEAVALGTGKALEMLHVLEDTILSSDDVLRR | soluble
7 | VFCAGHGVYWVAYDAGNLIKNGENTVEILTSTGEPGKKMDGRIYGTVLAAACENPKAPMVSYQLLTGNINLHGEGWSENIKEVNDRAEVNFSAGQALNNIDSANLSVVYLTGSKGLPDYIEFNGEIPGVPPQYLVEKCGENVRDIANEVSFDSSGDKGAASSYFDMEHIDVLNYLKADNSAVFVRGFDINGDGKIDDQEGEDYLHPVLAALVLTSKNTESVFPDLYPEIRVSEEELIDGKPVEISLTINNPGGICEENCTAVFLVDGNEISRVPIQMGAAGIHRSGILWSGIKGEHRLELFLD | not soluble
8 | GSHMEQDLKTLPTTKITCPKCGNDTAYWWEMQTRAGDEPSTIFYKCTKCGHTWRSYE | soluble
9 | MEYPMSYTFRATFPALFLSLMLPCALPALAADPAPAKDAAAQAPVERAPLLSRSQEDAIALERQLPREDQQQLQAGDESFLALWKPANTDAPQGAVIILPGDAESPDWPDTVGPLRRKFPDVGWSSLSITLPDAQDNTLLPREPDAAAGDANAAKPEETPKDAAAKAPDPAAEAEALAAVATAKAAADEERNKAQAELIFARIESAISFAQQNKARNIVLLGHSSGAYWAARFLNERPSPAVQKLVMVAAREPVDAAPSLLAMVPGLKIKTADFIYKNPEDQAAKARLQASKRAKGPGFTQIGLINIVGNEETEQEQMFRRIRGWVEAKEEK | not soluble
10 | PLTSTVNGYRNVGYFAQWGVYGRAFQAKQLDVSGTAKNLTHINYSFGNINNQTLTCFMANKAQGTGPNGSDGAGDAWADFGMGYAADKSVSGKADTWDQPLAGSFNQLKQLKAKNPKLKVMISLGGWTWSKNFSKAAATEASRQKLVSSCIDLYIKGNLPNFEGRGGAGAAAGIFDGIDIDWEWPGTNSGLAGNGVDTVNDRANFKALLAEFRKQLDAYGSTNNKKYVLSAFLPANPADIDAGGWDDPANFKSLDFGSIQGYDLHGAWNPTLTGHQANLYDDPADPRAPSKKFSADKAVKKYLAAGIDPKQLGLGLAAYGRGWTGAKNVSPWGPATDGAPGTYETANEDYDKLKTLGTDHYDAATGSAWRYDGTQWWSYDNIATTKQKTDYIVSKGLGGGMWWELSGDRNGELVGAMSDKFRAAAPGPVTEAAPP | soluble
11 | MGSDKIHHHHHHMQLYYAPNTISVAVAIALEEAGLAYEAVKIDFAEKQQTTRAYHQINPKGRVPALAVEGGILTETGALLEFIADLAPDADLRPSDPVLQARMREVMFYLASTMHVNHAHKMRGSRWASNPASFKDMARKVPETMAASCEYICNHGLRGPFVLGDTPCLADFYLYVVCTWLEGDGVKLAGFPKLRAFIEAMDARDSVKTVRAKDML | not soluble
12 | MKYMIPDEEFIRREGVPITKEEIRAVSIGKLNLNKDDVVVDVGCGSGGMTVEIAKRCKFVYAIDYLDGAIEVTKQNLAKFNIKNCQIIKGRAEDVLDKLEFNKAFIGGTKNIEKIIEILDKKKINHIVANTIVLENAAKIINEFESRGYNVDAVNVFISYAKKIPSGHMFLAKNPITIIKAVR | soluble
13 | MKAQMESWQDIQEYVKNNKKKHKRRMANDAMKNVNELGFPFTYFEDTYQFAIKTSIGMVDYFGTTGTWVVRKNQDRGRGLKKLKKYLEHPVPTKEIKKTKGNQSWMKNNR | not soluble
14 | MSLADDHIYVTSSGGSFLENVRKHMAEPFEKQSGVKVTLVPGTNPAHALKILSSRGTPPYDVAAFGGNDMYRLIRAKKLAQVDEKSVPSLADVPEKFKADWEGCGSLYDYSSVGIAYRPDKIQGGVKSWKEFVERTVAGEFGKQVFFNNLSSNVRGAEVLSMFGKIYGSGYGDIEASIATLERMKPHIFKFFTAFNDPVVLLTSGEGAIGPGWDGRTFIAEDSTKGMVKWVDPTEGAVSSGPVMAVVKGGKEDLAKAFMNYALGEEAQKAFCEAMYYGAVNRKVQYSEKLKHRLPSIDSVQLVDTALLIKNMSALLDLWNKRIASEGHHHHHH | soluble
15 | MTIAQEPTALNFECETGNYHTFCPISCVAWLYQKIEDSFFLVIGTKTCGYFLQNAMGVMIFAEPRYAMAELEEGDISAQLNDYAELKRLCEQIKRDRNPSVIVWIGTCTTEIIKMDLEGLAPKLEGEIGIPIVVARANGLDYAFTQGEDTVLAAMAHRCPDKAPVAELEHHHHHH | not soluble
16 | MTKNKSVARDERYYKAYLESRTISRRGLFRGLLKGVQPSTTTAPSDITAPPPLRPPYAIDEPHFQQSCTGCGVCVAACEENLIVMVNQRPALNFSTPYFSTPYCSRCQACSTACQTGALSSAEFHIAARPSVKNICQNTYIYCDSCADYCEKQALIWQANQPPTLVTELCDGCGECVFRCPARILEMQI | not soluble
17 | MGSSHHHHHHSSGLVPRGSEELQNKLEDVVIDRNLLILGKILGEGEFGSVMEGNLKQEDGTSLKVAVKTMKLDNSSQREIEEFLSEAACMKDFSHPNVIRLLGVCIEMSSQGIPKPMVILPFMKYGDLHTYLLYSRLETGPKHIPLQTLLKFMVDIALGMEYLSNRNFLHRDLAARNCMLRDDMTVCVADFGLSKKIYSGDYYRQGRIAKMPVKWIAIESLADRVYTSKSDVWAFGVTMWEIATRGMTPYPGVQNHEMYDYLLHGHRLKQPEDCLDELYEIMYSCWRTDPLDRPTFSVLRLQLEKLLESLPDV | soluble
18 | MDKIASDKDLREPDAGLLLNIFDLYYDLASAPAQYAAKRAHILEAAKKASTWHIRHVAPKYKNYVVVIGESARSDYMNVYGFPLPDTPFLSQTKGLLINGYQSTAHATNLSLPQTLGLPGEPNNNIVSLAKQAGFRTAWLSNQGMLGHFANEISTYALRSDYPWFTQRGDYGKSAGLSDRLLLPAFKRVLIGNAGTKPRLIVMHLMGSHSDFCTRLDKDARRFQYQTEKISCYVSTIAQTDKFLEDTVKILNENKESWSLVYFSDHGLMHVGKGGERTLTHGAWKRQSYGVPLVKISSDDTRREMIKVRRSAFNFLRGFGSWTGIETDELPDDGYDFWGNVPDVQGEGNNLAFIDGLPDDPAPWYAGKGKSTKNTSKK | not soluble
19 | AHHHHHHGSGLISDADKKVIKEEFFSKMVNPVKLIVFVRKDHCQYCDQLKQLVQELSELTDKLSYEIVDFDTPEGKELAKRYRIDRAPATTITQDGKDFGVRYFGLPAGHEFAAFLEDIVDVSREETNLMDETKQAIRNIDQDVRILVFVTPTCPYCPLAVRMAHKFAIENTKAGKGKILGDMVEAIEYPEWADQYNVMAVPKIVIQVNGEDRVEFEGAYPEKMFLEKLLSALS | soluble
20 | MAYIQLEPLNEGFLSRISGLLLCRWTCRHCCQKCYESSCCQSSEDEVEILGPFPAQTPPWLMASRSSDKDGDSVHTASEVPLTPRTNSPDGRRSSSDTSKSTYSLTRRISSLESRRPSSPLIDIKPIEFGVLSAKKEPIQPSVLRRTYNPDDYFRKFEPHLYSLDSNSDDVDSLTDEEILSKYQLGMLHFSTQYDLLHNHLTVRVIEARDLPPPISHDGSRQDMAHSNPYVKICLLPDQKNSKQTGVKRKTQKPVFEERYTFEIPFLEAQRRTLLLTVVDFDKFSRHCVIGKVSVPLCEVDLVKGGHWWKALIPSSQNEVELGELLLSLNYLPSAGRLNVDVIRAKQLLQTDVSQGSDPFVKIQLVHGLKLVKTKKTSFLRGTIDPFYNESFSFKVPQEELENASLVFTVFGHNMKSSNDFIGRIVIGQYSSGPSETNHWRRMLNTHRTAVEQWHSLRSRAECDRVSPASLEVT | soluble
21 | MGHHHHHHAIAENLYFQSKLVEKTTTTEQDNGEDFCRTIIEVSEVNRNVFQAPGGEADPFRVVSGEELHLIPPLNFSMVDNGIFRSGFPDSANFSFLQTLGLRSIIYLCPEPYPESNLQFLKSNGIRLFQFGIEGNKEPFVNIPDHKIRMALKVLLDEKNHPVLIHCKRGKHRTGCLVGCLRKLQKWCLTSIFDEYQRFAAAKARVSDQRFMEIFDVSSFSHIPMSFSCSIR | soluble
22 | MYGLVNKAIQDMISKHHGEDTWEAIKQKAGLEDIDFFVGMEAYSDDVTYHLVGAASEVLGKPAEELLIAFGEYWVTYTSEEGYGELLASAGDSLPEFMENLDNLHARVGLSFPQLRPPAFECQHTSSKSMELHYQSTRCGLAPMVLGLLHGLGKRFQTKVEVTQTAFRETGEDHDIFSIKYEDSNLYDD | soluble
23 | DAETFHKDELDLAYDRISQQFDTDMGGMNKAPKFPMPSIYLYLLRDYALTGRQGSLQHVELTLDKMAMGGIYDTIGGGFARYSVDGAWFAPHFEKMLYDNGQLLSLYSEAYTVTKKPLYKEVIEETYTWLKREMLSPEGGFYSALDADSEGVEGKFYCWQYEELAQLIQEDFALFCAYYAITENGNWEHGMNILYKRMSDEAFAAAHSISAEALRESVSRWKNILFSERDPREHPGLDDKILASWNGIMLKGLCDAYRILGDAAILNTALMNAEFILTKLYDGKTLFHSYKNKKATIPGFLEDYTHVIDGYLALYEVSLDEQWLRQAITLVNHVIDHFYDDDEGLFFYTSRTSEKLIARKKEIFD | not soluble
